{
  "source": "patent US20230310559A1",
  "about": "“Use of Amylase or Maltose to Treat or Prevent Neurodegeneration” (St. Jude Children's Research Hospital, Inc., priority 2020, published 2023)",
  "molecules": {"B1": {"name": "Amyrel: a secreted amylase enzyme (Drosophila myokine), GENBANK Accession No. NP_477262.1, given by transgenic overexpression (protein, UniProt O18408 20-493, looked up)", "Alpha-amylase-related protein": "QHNPHWWGNRNTIVHLFEWKWSDIAQECESFLGPRGFAGVQVSPVNENILSAGRPWWERYQPISYKLTTRSGNEEEFGDMVRRCNDVGVRIYVDVLLNHMSGDFDGVAVGTAGTEAEPSKKSFPGVPYTAQDFHPTCEITDWNDRFQVQQCELVGLKDLDQSSDWVRSKLIEFLDHLIELGVAGFRVDAAKHMASEDLEYIYSSLSNLNIDHGFPHNSRPFIFQEVIDHGHETVSRDEYKDLGAVTEFRFSEEIGNAFRGNNALKWLQSWGTDWGFLPSGQALTFVDNHDNQRDAGAVLNYKSPRQYKMATAFHLAYPYGISRVMSSFAFDDHDTPPPQDAQERIISPEFDADGACVNGWICEHRWRQIYAMVGFKNAVRDTEITGWWDNGDNQISFCRGNKGFLAINNNLYDLSQDLNTCLPAGTYCDVISGSLIDGSCTGKSVTVNENGYGYIHIGSDDFDGVLALHVDAKV"}, "B2": {"name": "Amy-d: other Drosophila amylase, transgenic overexpression (protein, UniProt P81641 19-494, looked up)", "Alpha-amylase B": "QFDTNYASGRSGMVHLFEWKWDDIAAECENFLGPNGYAGVQVSPVNENAVKDSRPWWERYQPISYKLETRSGNEEQFASMVKRCNAVGVRTYVDVVFNHMAADGGTYGTGGSTASPSSKSYPGVPYSSLDFNPTCAISNYNDANEVRNCELVGLRDLNQGNSYVQDKVVEFLDHLIDLGVAGFRVDAAKHMWPADLAVIYGRLKNLNTDHGFASGSKAYIVQEVIDMGGEAISKSEYTGLGAITEFRHSDSIGKVFRGKDQLQYLTNWGTAWGFAASDRSLVFVDNHDNQRGHGAGGADVLTYKVPKQYKMASAFMLAHPFGTPRVMSSFSFTDTDQGPPTTDGHNIASPIFNSDNSCSGGWVCEHRWRQIYNMVAFRNTVGSDEIQNWWDNGSNQISFSRGSRGFVAFNNDNYDLNSSLQTGLPAGTYCDVISGSKSGSSCTGKTVTVGSDGRASIYIGSSEDDGVLAIHVNAKL"}, "B3": {"name": "Amy-p: other Drosophila amylase, transgenic overexpression (protein, UniProt P08144 19-494, looked up)", "Alpha-amylase A": "B2 Alpha-amylase B with Y458N"}},
  "key": {"[1]": {"tested_on": "Drosophila brains and retinas", "assay": "Whole-mount immunostaining of Drosophila brains and retinas (poly-ubiquitin protein aggregates)", "assay_type": "in vivo", "conditions": "muscle-specific overexpression with Mhc-Gal4 or Act88F-GS-Gal4, compared to isogenic controls", "procedure": "Whole-Mount Immunostaining of Drosophila Brains and Retinas. The immunostaining of brains and retinas was carried out using established methods (Demontis & Perrimon (2009) Development 136(6):983-93; Demontis & Perrimon (2010) Cell 143(5):813-825). In brief, retinas and brains were dissected, fixed for 30 minutes in phosphate-buffered saline (PBS) with 4% paraformaldehyde and 0.2% TRITON⋅ X-100 at room temperature, washed for >3 times in PBS with 0.2% TRITON⋅ X-100 at room temperature, and immunostained overnight at 4° C. with rabbit anti-poly-ubiquitin (FK2; Enzo Life Sciences) and anti-Ref(2)P/p62 antibodies (Abeam). After washes with PBS with 0.2% TRITON⋅ X-100, the samples were incubated for 2 hours at room temperature with secondary antibodies and phalloidin conjugated to a fluorescent dye sold under the tradename ALEXA FLUOR® 635. The samples were subsequently washed, mounted in antifade medium and imaged on a Zeiss LSM 880 confocal microscope."}, "[2]": {"tested_on": "Drosophila retina with mutant tau^V337M", "assay": "Age-related retinal degeneration induced by mutant tau V337M", "assay_type": "in vivo", "conditions": "overexpression in Drosophila"}, "[3]": {"tested_on": "Huntingtin-polyQ72-GFP aggregates in the Drosophila retina", "assay": "Analysis of pathogenic Huntingtin-polyQ72-GFP aggregation in Drosophila retina", "assay_type": "in vivo", "conditions": "transgenic overexpression in Drosophila retinas during aging, compared to controls", "procedure": "(§1) Cloning of Myokines and Fly Transgenesis. The coding sequences of Drosophila CG4666, CG8093, Amyrel, Ag5r2, Amy-d, and Amy-p were generated as synthetic minigenes and cloned into the pUASTattB vector with the EcoRI and KpnI restriction enzymes. These plasmids were then injected into attP40 and/or attP2 by using the site-specific phiC31 integrase (Markstein, et al. (2008) Nat. Genet. 40(4):476-483) to generate transgenic flies.\nAnalysis of Pathogenic Huntingtin Aggregation. Pathogenic Huntingtin-polyQ72-GFP protein aggregates (Zhang, et al. (2010) Genetics 184(4):1165-79) were imaged with an epifluorescence microscope and the number and total area of protein aggregates estimated with CELLPROFILER™. This analysis was done with male flies after aging at 25° C. for 30 days, and/or aging at 29° C. for 20 days. A custom-made script was used for image analysis in CELLPROFILER™.\nAnalysis of Huntingtin-GFP Aggregates in Drosophila Eye. Frozen Drosophila was used for imaging of the eyes using ZEISS SteREO Discovery.V12 microscope at a specific exposure time and consistent settings. The acquired gray scale images were then analyzed for the area occupied by aggregates (Huntingtin-GFP specks) using CELLPROFILER™ 3.0.0 pipeline."}, "[4]": {"tested_on": "Drosophila heads and thoraces", "assay": "Western blots of detergent-soluble and detergent-insoluble fractions of Drosophila heads and thoraces during aging", "assay_type": "in vivo", "procedure": "as §1\nWestern Blots of Detergent-Soluble and Detergent-Insoluble Fractions. Western blots for detergent-soluble and detergent-insoluble fractions were carried out as previously described (Demontis & Perrimon (2010) Cell 143(5):813-825). In brief, heads and thoraces were dissected from 30 male flies/sample and homogenized in ice-cold PBS with 1% TRITON™ X-100 containing protease and phosphatase inhibitors. Homogenates were centrifuged at 14,000 rpm at 4° C. and supernatants collected (TRITON™ X-100-soluble fraction). The remaining pellet was washed in ice-cold PBS with 1% TRITON™ X-100. The pellet was then resuspended in RIPA buffer containing 8M urea and 5% SDS, centrifuged at 14,000 rpm at 4° C., and the supernatant collected (TRITON™ X-100-insoluble fraction). Detergent-soluble and detergent-insoluble fractions were analyzed on 4-20% SDS-PAGE with anti-ubiquitin (Cell Signaling Technologies P4D1), anti-Ref(2)P/p62 (Abcam), anti-Atg8/GABARAP (Abcam), and/or anti-GFP (Cell Signaling Technologies) antibodies. Ponceau S staining, anti-Tubulin antibodies (Cell Signaling Technologies), and/or anti-actin antibodies were used as loading controls.\nSoluble and Insoluble Protein Fractionation from Drosophila Tissues. Thoraces or heads were dissected from 30 male flies and homogenized in 100 μL ice-cold TRITON™ X-100 buffer (1% TRITON™ X-100 in PBS containing protease inhibitor and phosphatase inhibitor) for 5 minutes at highest speed. Homogenates were centrifuged at 14000 rpm at 4° C. for 10 minutes and supernatant collected (TRITON™ X-100-soluble fraction). The remaining pellet was washed in 400 μL of TRITON™ X-100 buffer, twice at 14000 rpm for 5 minutes at 4° C. The pellet was then resuspended in 100 μL 1× RIPA buffer containing 8M urea and 5% SDS at room temperature, centrifuged at 14000 rpm at 4° C. for 10 minutes, and supernatant was collected (TRITON™ X-100-insoluble fraction). Six μL of soluble/insoluble protein extracts were boiled with sample buffer containing DTT and separated by gel electrophoresis."}, "[5]": {"tested_on": "Drosophila heads", "assay": "Head transcriptome of flies with muscle-specific Amyrel overexpression", "assay_type": "in vivo"}, "[6]": {"assay": "Amylase activity assay of fly body homogenates", "assay_type": "in vivo, Drosophila", "conditions": "Amyrel overexpression, in comparison with isogenic controls", "procedure": "Amylase Activity Assay. Colorimetric detection of amylase activity was performed according to the manufacturer's instructions (Sigma-Aldrich). In brief, five flies were decapitated and placed on ice in a 1.5 ml tube. The decapitated bodies were homogenized in 150 μL of Amylase Assay Buffer (AAB). The homogenate was collected after high-speed centrifugation for 10 minutes. For this assay, 5 μL the body homogenate or standard was added to a well in a 96-well plate and brought up to 50 μL with AAB and water, respectively. A master reaction mix was made to conduct a colorimetric assay, and 100 μL was added to each well. The plate was mixed well using a horizontal shaker. After 2-3 minutes the absorbance was measured at 405 nm."}, "[7]": {"assay": "Maltose assays of fly hemolymph and bodies", "assay_type": "in vivo, Drosophila", "conditions": "Amyrel overexpression, in comparison with isogenic controls", "procedure": "Maltose Assays. Flies were decapitated and placed in a perforated 0.6 mL tube resting in a 1.5 mL tube, which was centrifuged at 1700 g for 6 minutes at 4° C. to collect the hemolymph ([…], et al. (2009) Cell Metab. 10:199-207). Equal volumes of hemolymph (1 μL) were used for subsequent determination of maltose levels. To avoid interference from eye pigments (Al-Anzi, et al. (2010) PLoS ONE 5(8):e12353), flies (n=10/biological replicate) were decapitated and homogenized with a Next Advance BULLET BLENDER® and 0.5-mm zirconium beads in 100 μL of maltose assay buffer (MAB). Body homogenates were then collected after centrifugation at maximum speed for 10 minutes to remove cuticle debris. Subsequently, the quantification of maltose concentration in the hemolymph and bodies was done with the maltose assay kit (Sigma-Aldrich), according to manufacturer's instructions. In brief, hemolymph and body homogenates were diluted 1:40 in MAB. […] After 1 hour, the absorbance was read at 570 nm with a Tecan Infinite 200 Pro. Blank (0 maltose standards) readings were subtracted from all readings. Maltose levels were calculated from the standard curve after subtracting the absorbance read in the absence of glucosidase treatment, which accounts for background glucose levels, from the absorbance read in duplicate samples treated with glucosidase."}, "[8]": {"tested_on": "Drosophila", "assay": "Startle-induced negative geotaxis", "assay_type": "in vivo", "conditions": "muscle-specific overexpression, compared to isogenic controls", "procedure": "Startle-Induced Negative Geotaxis. Startle-induced negative geotaxis was carried out according to established methods. Specifically, flies were tapped and the number of flies that reached the top of the vial was scored after 20 seconds."}},
  "note": "Positions count from the first letter of the chain named. “Also recorded” adds a separate entry of the source.",
  "data": [
    {"molecule": "B1", "values": [
      {"measurement": "amount of poly-ubiquitin protein aggregates in the retina and brain in old age", "setting": "[1]", "result": "significantly reduced"},
      {"measurement": "age-related neurodegeneration (retinal degeneration, rough eye phenotype) induced by tau^V337M", "setting": "[2]", "result": "largely prevented"},
      {"measurement": "pathogenic huntingtin (Htt-Q72-GFP) aggregates, total area and number of speckles", "setting": "[3]", "result": "less so; also recorded: decrease in an age-dependent manner"},
      {"measurement": "levels of polyubiquitinated proteins in heads", "setting": "[4]; flies with pathogenic Huntingtin (Htt-polyQ120) expression in the retina, muscle-specific overexpression", "result": "reduced the levels of polyubiquitinated proteins"},
      {"measurement": "proteostasis in skeletal muscle", "setting": "[4]; muscle-specific overexpression", "result": "did not regulate proteostasis in skeletal muscle"},
      {"measurement": "age-related accumulation of proteasome substrates (poly-ubiquitinated proteins, detergent-insoluble fractions) in head tissues", "setting": "[4]; muscle-specific overexpression, 10, 30 and 60 days", "result": "reduced the age-related accumulation of proteasome substrates; also recorded: reduced the age-related increase in polyubiquitinated proteins"},
      {"measurement": "Atg8 conversion and levels (autophagy)", "setting": "[4]; muscle-specific overexpression, heads", "result": "not significantly modulated"},
      {"measurement": "induction of Hsp23 gene", "setting": "[5]", "result": "> 8", "unit": "fold"},
      {"measurement": "genes involved in proteostasis, including several chaperones and proteases", "setting": "[5]; compared to isogenic controls", "result": "induced"},
      {"measurement": "amylase activity", "setting": "[6]", "result": "increase"},
      {"measurement": "circulating (hemolymph) maltose", "setting": "[7]", "result": "increase"},
      {"measurement": "whole body maltose", "setting": "[7]", "result": "increase"},
      {"measurement": "capacity for startle-induced negative geotaxis during aging", "setting": "[8]", "result": "preserves the capacity for negative geotaxis"},
      {"measurement": "percentage of flies unable to respond to stimulation, increase with aging", "setting": "[8]", "result": "less so"}
    ]},
    {"molecule": "B2", "values": [
      {"measurement": "pathogenic huntingtin (Htt-Q72-GFP) aggregates, total area and number of speckles", "setting": "[3]", "result": "reduced"}
    ]},
    {"molecule": "B3", "values": [
      {"measurement": "pathogenic huntingtin (Htt-Q72-GFP) aggregates, total area and number of speckles", "setting": "[3]", "result": "reduced"}
    ]}
  ]
}
